We go through 1 substance from patent publication US20050208610.

Data set [1] concerns apolipoprotein CIII fragment corresponding to amino acids 41-79 (SEQ ID NO:4), designated CR001.
Data set [2] concerns Apolipoprotein CIII purified from plasma derived from multiple human donors.
Chain of Apolipoprotein CIII purified from plasma derived from multiple human donors (chain, as listed by the source): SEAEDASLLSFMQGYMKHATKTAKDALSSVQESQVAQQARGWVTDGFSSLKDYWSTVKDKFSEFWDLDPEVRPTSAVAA

Chain of apolipoprotein CIII fragment corresponding to amino acids 41-79 (SEQ ID NO:4), designated CR001 (chain, as listed by the source): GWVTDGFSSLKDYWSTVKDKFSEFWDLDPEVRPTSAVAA

For factor Xa, the “factor Xa activity when tested alone on the chromogenic substrate S-2765” value in data set [1] and in data set [2] was “neither apoliproprotein CIII nor the apolipoprotein CIII fragment have any direct inhibitory effect on factor Xa activity” in each case.
